{"source": "patent US20250326842A1", "about": "(BEIGENE SWITZERLAND, published 2025)", "binders": {"B1": {"name": "BGA384 (antibody, human IgG1, kappa)", "heavy": "not shown", "light": "QIVLTQSPATLSLSPGERATLSCSAGSSVNYMHWFQQKPGQAPRLLIYSTSNLASGVPARFSGSGSGTDYTLTISSLEPEDFAVYYCQQRSSLPFTFGQGTKLEIKRTVAAPSVFIFPPSDEQLKSGTASVVCLLNNFYPREAKVQWKVDNALQSGNSQESVTEQDSKDSTYSLSSTLTLSKADYEKHKVYACEVTHQGLSSPVTKSFNRGEC", "notes": "also called BGB-A538; BGA384 WT"}}, "key": {"[1]": {"target": "T1, human PVRIG recombinant protein (human, UniProt Q6DKI7 41-171)", "T1 construct": "also called human PVRIG protein; recombinant human antigen PVRIG", "T1 sequence": "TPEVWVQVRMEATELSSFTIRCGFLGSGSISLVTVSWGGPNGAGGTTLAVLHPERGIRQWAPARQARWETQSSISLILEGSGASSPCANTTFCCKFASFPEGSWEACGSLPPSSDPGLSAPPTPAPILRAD", "experiment": "SPR, antibody captured via anti-human Fc, human PVRIG analyte", "text": "For affinity determination, anti-PVRIG antibodies were captured by anti-human Fc antibodies, and used in the affinity assay based on surface plasmon resonance (SPR) technology."}, "FcγRI": {"target": "FcγRI (human, UniProt P12314 16-288, limits assumed)", "sequence (P12314 16-288 limits assumed)": "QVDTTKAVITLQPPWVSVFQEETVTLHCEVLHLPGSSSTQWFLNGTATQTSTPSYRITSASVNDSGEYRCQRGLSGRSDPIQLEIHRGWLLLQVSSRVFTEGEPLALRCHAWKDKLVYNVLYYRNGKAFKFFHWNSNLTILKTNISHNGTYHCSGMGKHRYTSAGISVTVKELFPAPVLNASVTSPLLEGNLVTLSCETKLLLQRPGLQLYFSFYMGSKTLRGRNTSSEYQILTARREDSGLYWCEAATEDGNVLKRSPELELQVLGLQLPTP", "experiment": "Biacore, KD from kinetic constants (koff/kon)", "description": "K¹ (M) values were calculated from the ratio of the kinetic constants as KD=koff/kₒₙ. K2 (M) values were determined by the analyte concentration at which half of the ligands are occupied at equilibrium."}, "hPVRIG-ECD-his": {"target": "T2, hPVRIG-ECD-his (human, UniProt Q6DKI7 41-171)", "T2 construct": "Acrobiosystems PVG-H52H4; also called hPVRIG-His; human PVRIG-His; not shown: His tag", "T2 sequence": "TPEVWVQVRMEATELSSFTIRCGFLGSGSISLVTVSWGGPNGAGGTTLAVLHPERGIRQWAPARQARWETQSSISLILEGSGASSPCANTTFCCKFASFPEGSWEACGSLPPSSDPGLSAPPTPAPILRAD", "experiment": "blocking ELISA: hPVRIG-His coated, antibody mixed with PVRL2-biotin at 1 ug/mL; % inhibition of PVRL2 binding [panel B]"}, "[2]": {"target": "T3, Cyno PVRIG expressed on HEK293 cells (cynomolgus monkey)", "T3 construct": "also called native Cyno PVRIG", "T3 chain": "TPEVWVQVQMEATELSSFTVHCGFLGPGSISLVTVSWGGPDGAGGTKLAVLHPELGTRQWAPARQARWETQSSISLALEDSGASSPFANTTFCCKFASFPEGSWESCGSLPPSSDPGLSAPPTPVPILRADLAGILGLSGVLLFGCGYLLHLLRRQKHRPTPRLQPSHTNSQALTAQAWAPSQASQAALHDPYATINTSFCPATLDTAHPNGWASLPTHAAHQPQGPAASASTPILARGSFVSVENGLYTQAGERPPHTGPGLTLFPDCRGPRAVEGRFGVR", "experiment": "flow cytometry on HEK293 cells expressing cyno PVRIG, anti-hFc-647 detection [panel B]", "description": "To evaluate the binding activity of anti-PVRIG antibodies to native Cyno PVRIG on living cells. HEK293 cells were engineered to express Cyno PVRIG. HEK293 cells transfected with Cyno PVRIG were seeded in 96 well plates and were incubated with a serial dilution of anti-PVRIG antibodies. […] EC50 values for dose dependent binding to Cyno native PVRIG were determined by fitting the dose response data to the four-parameter logistic model with GraphPad Prism™."}}, "data": [{"binder": "B1", "values": [{"measurement": "Kd", "setting": "[1]", "value": 0.258, "unit": "nM"}, {"measurement": "koff", "setting": "[1]", "value": 0.000304, "unit": "s⁻¹"}, {"measurement": "kon", "setting": "[1]", "value": "1.18e+06", "unit": "M⁻¹ s⁻¹"}, {"measurement": "Kd", "setting": "FcγRI", "value": 3.26, "unit": "nM"}, {"measurement": "IC50 (read off the curve)", "setting": "hPVRIG-ECD-his", "value": "~0.4", "unit": "µg/mL"}, {"measurement": "EC50 (read off the curve)", "setting": "[2]", "value": "~0.05", "unit": "µg/mL"}]}]}
